Reference: patent EP1644414B1

Target: UV-inactivated SARS-CoV preparation (Frankfurt 1 strain) (SARS-CoV strain Frankfurt 1)
Test: phage ELISA, plate 2 (no phage 0.211)

B1: SC03-026 (scFv)
scFv: AMAQVQLVQSGGGLVQPGGSLRLSCAASGFTFSSYAMHWVRQAPGKGLEYVSGISSNGGSTYYANSVKGRFTISRDNSKNTLYLQMGSLRAEDMAVYYCARTTNRAFDIWGQGTMVTVSSGTGGSGGTGSGTGGSTDIQMTQSPDSLAVSLGERATINCKSSQSILYSSNSKNYLGWYQQKPGQPPKLLIYWASTRESGVPDRFSGSGSGTDFTLTISSLQAEDVAVYYCQQYYSTPYSFGQGTKVEIKRAA
B1 gave an OD492nm of 1.07 OD492nm.
